From US20250326864A1 (PARADOX IMMUNOTHERAPEUTICS, published 2025)

How the values were obtained:
[1] = molecular target: aggregated/amyloid Wil λ light chain (human); test: cell-based or functional assay
[2] = molecular target: T1, misfolded H3 λ light chain (human); test: bio-layer interferometry
T1 construct: also called H3 (misfolded)
Description: (§1) FIGS. 6A-6F are bio-layer interferometry sensorgrams of binding interactions between clone 1 (muLX-97) to misfolded (FIGS. 6A, 6B, 6C) and native (FIGS. 6D, 6E, 6F) conformations of Wil (FIGS. 6A, 6D), H3 (FIGS. 6B, 6E), and FOR102 (FIGS. 6C, 6F) lambda light chain variants. Binding of muLX-97 with its misfolded Wil at a range of target concentrations was measured by changes in wavelength (nm) over 720 seconds (120 s association, 600 s dissociation). Association and dissociation curves were fit using Octet Systems Software to determine KD.
(§2) The binding affinity of muLX-97 to multiple λ light chain variants in misfolded and native conformations was then measured. In addition to Wil, two light chain variants sequenced from cardiac amyloid deposits in light chain amyloidosis patients were selected. See Oberti L et al. Concurrent structural and biophysical traits link with immunoglobulin light chains amyloid propensity. Sci Rep. 2017 Dec. 1; 7(1):16809 and Baur J et al. Identification of AL proteins from 10λ-AL amyloidosis patients by mass spectrometry extracted from abdominal fat and heart tissue. Amyloid. 2023 March; 30(1) 27-37. […] In native conformations of all variants, only weak binding (limited BLI signal, at very high concentration of 1000 nM) was observed. This limited association may be due to the presence of small amounts of misfolded Wil contaminating the ‘native’ sample.

[3] = molecular target: T2, misfolded FOR102 λ light chain (human); test: bio-layer interferometry
T2 construct: also called FOR102 (misfolded)
Description: as §1, §2

[4] = molecular target: T3, misfolded/unfolded Wil λ light chain (human); test: bio-layer interferometry
T3 construct: mature; Soluble misfolded form made from native Wil; Biotinylated in the capture ELISA; also called misfolded Wil; Wil (misfolded)
Description: as §1, §2

[5] = molecular target: T4, islet amyloid polypeptide (IAPP) amyloid in pancreatic tissue (human, UniProt P10997 34-70); test: immunohistochemistry on patient tissue
T4 construct: Pathological control tissue in immunohistochemistry; also called IAPP amyloid pancreatic tissue
T4 chain (looked up): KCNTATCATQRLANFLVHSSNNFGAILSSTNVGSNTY

[6] = molecular target: transthyretin (ATTR) amyloid in cardiac tissue (human, UniProt P02766 21-147); test: immunohistochemistry on patient tissue
[7] = molecular target: T3, misfolded/unfolded Wil λ light chain; test: microscale thermophoresis, labeled antibody
Description: (§3) FIGS. 7A and 7B are line graphs illustrating the results of binding of misfolded (FIG. 7A) or amyloid (FIG. 7B) Wil to muLX-97 measured by MST (microscale thermophoresis).
(§4) Next, the binding affinity of muLX-97 to amyloid forms of λ light chains was determined. A true affinity to aggregates could not be measured using previously described methods where either the antibody or target is immobilized, so microscale thermophoresis (MST) was used. In this method a small spot in a capillary containing fluorescently labeled antibody in the presence or absence of target is irradiated with an infrared laser. The local heating causes migration of protein out of the heated spot and the rate of migration change (due to the antibody binding to a ligand) can be used to measure the affinity. Using the NanoTemper Monolith, binding of muLX-97 to misfolded and amyloid forms of Wil was quantified, with results shown in FIG. 7.

[8] = molecular target: T3, misfolded/unfolded Wil λ light chain; test: microscale thermophoresis, labeled antibody; remark: listed apart in the source
Description: as §3, §4

[9] = molecular target: T5, aggregated/amyloid Wil λ light chain (human); test: microscale thermophoresis, labeled antibody
T5 construct: mature; Aggregate of many chains; Conjugated to pHrodo in the phagocytosis assay; also called Wil amyloid; amyloid/aggregated Wil
Description: as §3, §4

[10] = molecular target: T3, misfolded/unfolded Wil λ light chain; test: capture ELISA, antibody captured by anti-mouse Fc, biotinylated Wil in solution
From the text: All the candidate mAbs detected both misfolded/unfolded and amyloid/aggregated Wil. […] It was suspected that the Western blotting and indirect ELISA methods, which immobilizes the ‘native’ Wil protein to a surface, can lead to false-positive binding to the native protein by inducing some degree of misfolding, which would not be detected by the clones that bound weakly (clones 3-5). As such, a capture format ELISA was used to interrogate the binding behavior of clones 1 and 2. In this format, a goat anti-mouse Fc capture antibody was coated into the ELISA wells, and clones 1 or 2 are captured by the antibody with their Fabs aligned to the appropriate orientation. Then, native, or misfolded forms of biotinylated Wil is added to these wells and binding is measured by streptavidin. […] Based on the above data, clone 1 was selected as the lead candidate for subsequent characterization (henceforth referred to as muLX-97).

EC50 of phagocytic uptake of pHrodo-labeled amyloid Wil (% pHrodo-positive cells), J774.1 cells [1]: ~7 nM
EC50 of phagocytic uptake of pHrodo-labeled amyloid Wil (% pHrodo-positive cells), RAW 264.7 cells [1]: ~20 nM
Kd [2]: 317 nM
Kd [3]: 65 nM
Kd [4]: 59 nM
binding result [5]: no binding
binding result [6]: no binding
Kd [7]: 61.9 nM
Kd [8]: 61 nM
Kd [9]: 87 nM
Kd [10]: 69 nM
B1: muLX-97 (clone 1) (antibody, V domains shown)
VH: DVKLVESGGGLVKLGGSLKLSCAASGFTFSSYYMSWVRQTPEKRLELVAAINSNGGNTYYPDTVKGRFTISRDNAKNTLYLQMSSLKSEDTALYYCARLPFDYWGQGTTLTVSS
VL: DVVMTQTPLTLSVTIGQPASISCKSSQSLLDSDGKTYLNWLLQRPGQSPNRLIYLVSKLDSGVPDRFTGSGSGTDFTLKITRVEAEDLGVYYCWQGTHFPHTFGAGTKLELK
modifications: Antibody fluorescently labeled in the MST assay; dye and site not stated.
notes: Murine monoclonal antibody from a hybridoma, purified from mouse ascites fluid; Fluorescently labeled in the MST assay
